Values belong to the binder of their own block, whether it stands above or below them.
Experiments:
[1] = molecular target: T1, cyclo(CGHHQKG) cyclic peptide, conjugated to BSA; assay: MAAS-2 SPR; antibody immobilized, cyclopeptide-BSA at pH 6.5, 7.5 or 8.0
T1 sequence (peptide, cyclized peptide, cyclo(CGHHQKG); conjugated to BSA): CGHHQKG

[2] = molecular target: A-beta oligomers in the low molecular weight (LMW, ~8-70 kDa) fraction of soluble human AD brain extract (human) (UniProt P05067); assay: SPR; antibody immobilized, SEC fraction at 100ug/ml
A-beta42 Monomer (human) [3] = assay: SPR direct binding; hybridoma supernatant over immobilized A-beta42 monomer
[4] = molecular target: commercially-prepared stable A-beta42 Oligomers (SynAging) (human); assay: SPR; antibody covalently immobilized, stable A-beta42 oligomers at 1 microM
[5] = molecular target: T1, cyclo(CGHHQKG) cyclic peptide, conjugated to BSA; assay: SPR direct binding; hybridoma supernatant over immobilized BSA-conjugated peptide
[6] = molecular target: T2, linear CGHHQKG peptide, conjugated to BSA; assay: as above
T2 sequence (peptide, conjugated to BSA): CGHHQKG

A-beta42 Monomer (human) [7] = assay: SPR; purified antibody immobilized, A-beta injected
[8] = molecular target: A-beta42 Oligomer (synthetic) (human); assay: as above
[9] = molecular target: A-beta42 Oligomer (synthetic) (human); assay: SPR direct binding; hybridoma supernatant over immobilized A-beta42 oligomer

A-beta42 Oligomer (synthetic) (human), sequence (peptide, as listed by the source): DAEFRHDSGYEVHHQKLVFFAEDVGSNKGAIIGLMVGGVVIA
A-beta42 Monomer (human), sequence (peptide, as listed by the source): as above
A-beta oligomers in the low molecular weight (LMW, ~8-70 kDa) fraction of soluble human AD brain extract (human), sequence (P05067 672-713): as the sequence (peptide, as listed by the source) above
commercially-prepared stable A-beta42 Oligomers (SynAging) (human), sequence (peptide, as listed by the source): as above

BRU [1]: 400 BRU
B1: Recombinant 301-17 IgG1 (murine IgG1 backbone) (antibody, V domains shown)
VH: QVQLQQPGAELVKPGASVKMSCKASGYSFTSYWINWVKQRPGQGLEWIGDVHPGRGVSTYNAKFKSKATLTLDTSSSTAYMQLSSLTSEDSAVYYCSRSHGNTYWFFDVWGAGTTVTVSS
VL: DVLMTQTPLSLPVSLGDQASISCRSSQSIVHSNGNTYLEWYLQKPGQSPKLLIYKVSNRFSGVPDRFSGSGSGTDFTLKISRVEAEDLGVYYCFQGSHVPFTFGSGTKLEIKR

fold binding response against aducanumab [2]: 1.5 to 2 fold
B2: Humanized antibody of 301-17 (VH2 Vk5), human IgG4 (S241P hinge variant) / kappa (antibody, V domains shown)
VH: QVQLVQSGAEVKKPGASVKMSCKASGYSFTSYWINWVKQRPGQGLEWIGDVHPGRGVSTYNAKFKSRATLTLDTSISTAYMELSSLRSEDTAVYYCSRSHGNTYWFFDVWGQGTTVTVSS
VL: DVLMTQSPLSLPVTLGQPASISCRSSQSIVHSNGNTYLEWYQQRPGQSPRLLIYKVSNRFSGVPDRFSGSGSGTDFTLKISRVEAEDVGVYYCFQGSHVPFTFGQGTKLEIKR

RU (A-beta42 Monomer (human) [3]): 21.6 RU
binding response units (BRU), average [4]: 19.3 BRU
RU [5]: 488 RU
RU [6]: 210 RU
RU (A-beta42 Monomer (human) [7]): -14.1 RU
RU [8]: -2.8 RU
RU [9]: 75.3 RU
B3: 301-11 mouse monoclonal antibody (IgG3, kappa) (antibody, V domains shown)
VH: EVQLVESGGGLVKPGGSLKLSCAASGFTFSDYYMYWVRQTPEKRLEWVATISDGGSYTSYPDSVKGRFTISRDNAKNNLYLQMSSLRSEDTAMYYCARDYYGSSSYTSGFAYWGQGTLVTVSA
VL: DIVMSQSPSSLAVSTGEKVTMSCKSSQSLLNSRTRKNYLAWYQQKPGQSPKLLIYWASTRESGVPDRFTGSGSGTDFTLTISSVQAEDLAVYYCKQSYNLYTFGGGTKLEIK

RU [8]: 148 RU
B4: 301-17 mouse monoclonal antibody, hybridoma-purified IgG3 (antibody, V domains shown)
VH: QVQLQQPGAELVKPGASVKMSCKASGYSFTSYWINWVKQRPGQGLEWIGDVHPGRGVSTYNAKFKSKATLTLDTSSSTAYMQLSSLTSEDSAVYYCSRSHGNTYWFFDVWGAGTTVTVSSATTTAPS
VL: DVLMTQTPLSLPVSLGDQASISCRSSQSIVHSNGNTYLEWYLQKPGQSPKLLIYKVSNRFSGVPDRFSGSGSGTDFTLKISRVEAEDLGVYYCFQGSHVPFTFGSGTKLEIKRADA
